# Assay results taken from patent US20210230279A1 (University of California, published 2021).
# Ends that are not written are not given here.
# B1: TGF-β3 RGD multiple antigen presenting peptide DDHGRGDLGRLK (peptide)
# peptide: DDHGRGDLGRLK
# modifications: also: multiple antigen presenting peptide on 8-lysine core (branched)
# notes: Branched peptide on a lysine core; also called L-TGF-b3 peptide; TGFb3 peptide
# B2: C6D4-RGD3 (antibody, V domains shown)
# VH: QIQLLQSGPELKKPGETVKISCKASGYTFTDYSMHWVKQAPGKGLKWVARINTETGEPTFADDFRGRFAVSLETSASTAYLQINNLKNEDTATYFCAIFYYGRDSWGQGTTLTVSS
# VL: DIVMTQSPSSLAVSAGEKVTMSCKSSQSLLGRGDLGRLKKNALAWYQQKPGQSPRLLIYWASTRESGVPDRFTGSGSGTDFTLTISSVQAEDLAVYYCKQSYNLLSFGAGTKLELKR
# notes: also called CD64-RGD3; C6 / RGD3
# B3: C6D4 (composite antibody of C6 VH and D4 VK; murine IgG2a) (antibody, V domains shown)
# VH: QIQLLQSGPELKKPGETVKISCKASGYTFTDYSMHWVKQAPGKGLKWVARINTETGEPTFADDFRGRFAVSLETSASTAYLQINNLKNEDTATYFCAIFYYGRDSWGQGTTLTVSS
# VL: DIVMTQSPSSLAVSAGEKVTMSCKSSQSLLNSRTRKNYLAWYQQKPGQSPRLLIYWASTRESGVPDRFTGSGSGTDFTLTISSVQAEDLAVYYCKQSYNLLSFGAGTKLELKR
# notes: also called C6D4 murine IgG2a; Mab C6D4
# B4: C6D4-RGD3 as rabbit IgG (C6VH expressed with the RGD3 mutant Vk) (antibody, V domains shown)
# VH: QIQLLQSGPELKKPGETVKISCKASGYTFTDYSMHWVKQAPGKGLKWVARINTETGEPTFADDFRGRFAVSLETSASTAYLQINNLKNEDTATYFCAIFYYGRDSWGQGTTLTVSS
# VL: DIVMTQSPSSLAVSAGEKVTMSCKSSQSLLGRGDLGRLKKNALAWYQQKPGQSPRLLIYWASTRESGVPDRFTGSGSGTDFTLTISSVQAEDLAVYYCKQSYNLLSFGAGTKLELKR
# notes: also called C6D4-RGD3 mutant
# B5: C6D4 as rabbit IgG (C6VH expressed with D4 Vk) (antibody, V domains shown)
# VH: QIQLLQSGPELKKPGETVKISCKASGYTFTDYSMHWVKQAPGKGLKWVARINTETGEPTFADDFRGRFAVSLETSASTAYLQINNLKNEDTATYFCAIFYYGRDSWGQGTTLTVSS
# VL: DIVMTQSPSSLAVSAGEKVTMSCKSSQSLLNSRTRKNYLAWYQQKPGQSPRLLIYWASTRESGVPDRFTGSGSGTDFTLTISSVQAEDLAVYYCKQSYNLLSFGAGTKLELKR
# notes: also called wildtype C6D4
# B6: clone C6 (scFv, yeast display) (scFv, V domains shown)
# VH: QIQLLQSGPELKKPGETVKISCKASGYTFTDYSMHWVKQAPGKGLKWVARINTETGEPTFADDFRGRFAVSLETSASTAYLQINNLKNEDTATYFCAIFYYGRDSWGQGTALTVSS
# VL: DIVMSQSPSSLAVSAGEKVTMSCKSSQSLLNSRTRKNYLAWYQQKPGQSPRLLIYWASTRESGVPDRFTGSGSGTDFTLTISSVQAEDLAVYYCKQSYNLLTFGAGTKLELKA
# notes: scFv on yeast; also called A5=C6
# B7: Humanized C6D4-RGD3 (HuC6D4-RGD3) (antibody, V domains shown)
# VH: QIQLVQSGAEVKKPGASVKISCKASGYTFTDYSMHWVRQAPGQGLEWVARINTETGEPTFADDFRGRFTVTLDTSTSTAYLEIRSLRSDDTAVYFCAIFYYGRDTWGQGTTLTVSS
# VL: EIVMTQSPATLSVSPGERVTMSCKSSQSLLGRGDLGRLKKNALAWYQQKPGQAPRLLIYWASTRESGVPARFSGSGSGTEFTLTISSVQSEDFAVYYCKQSYNLLSFGQGTVLEIKR
# notes: Frameworks and CH1 are human; hinge and CH2-3 are mouse; also called humanized RGD3
# Assays:
# [1] = biological target: T1, human integrin αvβ8 on CHO cells (human, UniProt P06756 31-1048; P26012 43-769); assay: cell adhesion to coated peptide, crystal violet, signal above mock transfected cells (FIG. 25)
# T1 construct: also called CHO cells expressing αvβ8; CHO lec cells stably transfected with αvβ8
# [2] = biological target: T2, recombinant human integrin αvβ6 (human, UniProt P18564 22-707); assay: ELISA, Mab coated at 5 ug/ml, receptor 0.5 µg/ml in Mg buffer (1 mM Ca++ and 1 mM Mg++), detected with biotinylated anti-αv 8B8
# T2 construct: also called αvβ6 (R&D systems); αvβ6 receptor
# Method: (§1) Binding in EDTA containing buffer defines cation-dependence because EDTA binds to Ca⁺⁺ and Mg′. Magnesium cation buffers contains 1 mM Ca⁺⁺ and 1 mM Mg⁺⁺. Here, the results are relative to anti-av, clone 11D12V2. All antibodies were coated on ELISA plates at 5 μg/ml.
# [3] = biological target: T3, recombinant human integrin αvβ8 (human, UniProt P06756 31-992; P26012 43-684); assay: as above
# T3 construct: also called Human Integrin alpha V beta 8; purified recombinant αvβ8
# Method: as §1
# [4] = biological target: T2, recombinant human integrin αvβ6; assay: blocking of adhesion (A590) of Cho cells expressing GARP/LTGFB1 to immobilized αvβ6; antibody concentration varied; unit taken from the axis log[Agonist], (ug/ml)
# From the text: (§2) Here, Cho3.2.8.1 cells were transfected with GARP and LTGFB1.
# [5] = biological target: T3, recombinant human integrin αvβ8; assay: blocking of adhesion (A590) of Cho cells expressing GARP/LTGFB1 to immobilized αvβ8; antibody concentration varied; unit taken from the axis log[Agonist], (ug/ml)
# From the text: as §2
# [6] = biological target: T3, recombinant human integrin αvβ8; assay: cell-based or functional assay
# [7] = biological target: T4, recombinant human integrin αvβ3 (human, UniProt P05106 27-718); assay: ELISA on coated recombinant human integrin; 0 = no apparent binding
# T4 construct: Bought; also called αvβ3 (R&D systems)
# From the text: (§3) Binding was quantified by intensity as 0-4 (0 representing no apparent binding; 4 representing robust binding) and results normalized to expression.
# [8] = biological target: T5, recombinant human integrin αvβ5 (human, UniProt P18084 24-719); assay: as above
# T5 construct: Bought; also called αvβ5 (R&D systems)
# From the text: as §3
# [9] = biological target: T6, recombinant human integrin αvβ1 (human, UniProt P05556 21-728); assay: as above
# T6 construct: Bought; also called αvβ1 (R&D systems)
# From the text: as §3
# [10] = biological target: T3, recombinant human integrin αvβ8; assay: ELISA: integrin coated on plate, supernatant of transfected 293 cells at 1/10 dilution, anti-mouse IgG-HRP; score normalized to expression;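 further: scale runs from 0 (no apparent binding) to 4 (robust binding), with scores adjusted for clone protein expression as determined by a murine IgG ELISA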
# From the text: as §3
# [11] = biological target: T2, recombinant human integrin αvβ6; assay: competition of RGD3 with 3G9 for binding to αvβ6 (sheet title: modest cross-competition); y axis 'Relative Inhibition of avb6 binding to TGFb3 peptide'; signal falls from about 1.0 only to about 0.55 at log 4
# [12] = biological target: T2, recombinant human integrin αvβ6; assay: cell-based or functional assay
# [13] = biological target: T2, recombinant human integrin αvβ6; assay: ELISA, Mab coated at 5 ug/ml, αvβ6 receptor 0.5 µg/ml, detected with biotinylated anti-αv 8B8; percent of binding to anti-αv clone 11D12V2
# Method: as §1
# [14] = biological target: T3, recombinant human integrin αvβ8; assay: Kinetic Exclusion Assay (KinExA), C6D4 as murine IgG2a
# [15] = biological target: T7, truncated secreted form of αvβ8 fused in frame to alkaline phosphatase; assay: ELISA: inhibition of binding of secreted αvβ8-alkaline phosphatase to coated TGF-β3 RGD peptide (1 µg/ml), OD405; fitted value in the table under the graph; unit from the axis and paragraph 229
# T7 construct: Printed: truncated secreted form; also called alkaline phosphatase (AP) αvβ8 fusion protein; secreted αvβ8
# [16] = biological target: T4, recombinant human integrin αvβ3; assay: ELISA, integrin coated, rabbit IgG detected with anti-rabbit HRP; relative to anti-αv (8B8) control wells
# Method: (§4) All integrins were coated on ELISA plates at 2 mg/ml, blocked with BSA, and antibodies were allowed to bind.
# [17] = biological target: T5, recombinant human integrin αvβ5; assay: as above
# Method: as §4
# [18] = biological target: T6, recombinant human integrin αvβ1; assay: as above
# Method: as §4
# [19] = biological target: T2, recombinant human integrin αvβ6; assay: as above
# Method: as §4
# [20] = biological target: T3, recombinant human integrin αvβ8; assay: scFv yeast display selection from random mutation libraries of clones 29 and 44
# [21] = biological target: recombinant αvβ8 ectodomain (Homo sapiens (Human), UniProt P06756 31-992; P26012 43-684); assay: ELISA, Mab coated at the given concentration, αvβ8 ectodomain 0.5 µg/ml, detected with biotinylated anti-αv 8B8 and SA-HRP; specific binding minus SV5 control
# Sequence of recombinant αvβ8 ectodomain (P06756 31-992 limits assumed, chain 1 of 2): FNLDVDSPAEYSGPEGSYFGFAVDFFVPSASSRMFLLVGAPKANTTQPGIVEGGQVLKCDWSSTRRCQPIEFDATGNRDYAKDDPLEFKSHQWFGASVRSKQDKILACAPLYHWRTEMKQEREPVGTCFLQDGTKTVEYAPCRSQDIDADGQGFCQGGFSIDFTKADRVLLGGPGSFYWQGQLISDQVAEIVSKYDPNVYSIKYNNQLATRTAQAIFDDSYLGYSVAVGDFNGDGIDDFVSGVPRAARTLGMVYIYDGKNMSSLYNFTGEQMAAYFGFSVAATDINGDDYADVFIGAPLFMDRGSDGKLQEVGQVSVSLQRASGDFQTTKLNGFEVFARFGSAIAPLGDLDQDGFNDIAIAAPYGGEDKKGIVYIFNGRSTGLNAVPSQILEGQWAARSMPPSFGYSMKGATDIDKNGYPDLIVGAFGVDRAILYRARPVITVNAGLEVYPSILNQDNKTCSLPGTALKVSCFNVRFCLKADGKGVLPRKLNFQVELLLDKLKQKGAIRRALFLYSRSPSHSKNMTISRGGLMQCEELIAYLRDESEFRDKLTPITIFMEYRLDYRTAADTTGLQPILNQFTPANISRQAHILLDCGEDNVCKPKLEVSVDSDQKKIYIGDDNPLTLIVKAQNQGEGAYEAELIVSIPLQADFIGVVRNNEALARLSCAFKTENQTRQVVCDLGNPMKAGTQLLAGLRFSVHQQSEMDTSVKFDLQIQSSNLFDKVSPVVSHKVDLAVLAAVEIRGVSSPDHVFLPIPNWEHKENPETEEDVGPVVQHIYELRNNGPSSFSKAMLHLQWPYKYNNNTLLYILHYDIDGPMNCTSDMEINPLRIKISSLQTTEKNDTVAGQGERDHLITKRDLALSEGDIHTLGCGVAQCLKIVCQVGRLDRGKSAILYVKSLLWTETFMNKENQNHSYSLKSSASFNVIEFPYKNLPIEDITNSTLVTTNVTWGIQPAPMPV
# Sequence of recombinant αvβ8 ectodomain (P26012 43-684 limits assumed, chain 2 of 2): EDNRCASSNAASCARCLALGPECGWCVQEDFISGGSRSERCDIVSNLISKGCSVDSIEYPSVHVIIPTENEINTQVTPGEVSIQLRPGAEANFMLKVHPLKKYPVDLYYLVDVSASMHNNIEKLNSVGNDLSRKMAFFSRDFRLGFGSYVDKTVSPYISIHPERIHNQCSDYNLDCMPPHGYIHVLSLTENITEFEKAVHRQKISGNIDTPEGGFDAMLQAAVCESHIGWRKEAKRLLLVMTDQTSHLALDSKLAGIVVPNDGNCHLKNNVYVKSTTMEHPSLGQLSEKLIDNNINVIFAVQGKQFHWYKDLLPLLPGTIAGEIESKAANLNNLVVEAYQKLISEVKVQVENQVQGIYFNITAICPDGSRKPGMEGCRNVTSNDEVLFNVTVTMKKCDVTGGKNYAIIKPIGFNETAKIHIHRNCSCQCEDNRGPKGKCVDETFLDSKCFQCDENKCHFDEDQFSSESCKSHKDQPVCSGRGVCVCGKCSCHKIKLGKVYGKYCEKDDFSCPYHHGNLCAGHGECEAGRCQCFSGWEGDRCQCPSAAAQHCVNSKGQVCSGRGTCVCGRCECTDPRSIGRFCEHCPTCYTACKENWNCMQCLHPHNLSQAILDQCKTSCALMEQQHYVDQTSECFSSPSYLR
# From the text: As a negative control, some wells were coated with anti-SV5 at the same concentrations. Non-specific binding sites were blocked with BSA.
# T5 sequence (chain, as listed by the source limits assumed, chain 1 of 2): as the sequence (P06756 31-992 limits assumed, chain 1 of 2) above
# T5 sequence (P18084 24-719 limits assumed, chain 2 of 2): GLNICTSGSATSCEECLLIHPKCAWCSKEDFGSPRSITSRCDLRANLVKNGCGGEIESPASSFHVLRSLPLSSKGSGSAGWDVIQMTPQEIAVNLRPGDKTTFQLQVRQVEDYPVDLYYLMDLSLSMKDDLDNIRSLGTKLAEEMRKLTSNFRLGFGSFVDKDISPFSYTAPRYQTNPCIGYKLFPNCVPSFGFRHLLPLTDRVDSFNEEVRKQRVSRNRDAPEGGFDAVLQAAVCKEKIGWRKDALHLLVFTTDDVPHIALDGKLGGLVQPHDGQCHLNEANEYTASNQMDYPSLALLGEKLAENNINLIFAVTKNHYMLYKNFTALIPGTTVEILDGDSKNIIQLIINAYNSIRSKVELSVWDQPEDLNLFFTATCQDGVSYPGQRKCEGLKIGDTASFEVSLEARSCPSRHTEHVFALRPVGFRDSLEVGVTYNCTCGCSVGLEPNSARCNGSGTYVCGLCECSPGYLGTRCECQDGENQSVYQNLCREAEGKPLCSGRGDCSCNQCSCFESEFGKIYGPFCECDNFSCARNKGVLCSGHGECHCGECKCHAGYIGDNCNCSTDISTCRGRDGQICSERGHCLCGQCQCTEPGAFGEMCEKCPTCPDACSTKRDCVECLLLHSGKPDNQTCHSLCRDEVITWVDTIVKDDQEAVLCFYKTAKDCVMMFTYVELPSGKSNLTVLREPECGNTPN
# T3 sequence (P06756 31-992 limits assumed, chain 1 of 2): as the sequence (P06756 31-992 limits assumed, chain 1 of 2) above
# T3 sequence (P26012 43-684 limits assumed, chain 2 of 2): as the sequence (P26012 43-684 limits assumed, chain 2 of 2) above
# T4 sequence (chain, as listed by the source limits assumed, chain 1 of 2): as the sequence (P06756 31-992 limits assumed, chain 1 of 2) above
# T4 sequence (P05106 27-718 limits assumed, chain 2 of 2): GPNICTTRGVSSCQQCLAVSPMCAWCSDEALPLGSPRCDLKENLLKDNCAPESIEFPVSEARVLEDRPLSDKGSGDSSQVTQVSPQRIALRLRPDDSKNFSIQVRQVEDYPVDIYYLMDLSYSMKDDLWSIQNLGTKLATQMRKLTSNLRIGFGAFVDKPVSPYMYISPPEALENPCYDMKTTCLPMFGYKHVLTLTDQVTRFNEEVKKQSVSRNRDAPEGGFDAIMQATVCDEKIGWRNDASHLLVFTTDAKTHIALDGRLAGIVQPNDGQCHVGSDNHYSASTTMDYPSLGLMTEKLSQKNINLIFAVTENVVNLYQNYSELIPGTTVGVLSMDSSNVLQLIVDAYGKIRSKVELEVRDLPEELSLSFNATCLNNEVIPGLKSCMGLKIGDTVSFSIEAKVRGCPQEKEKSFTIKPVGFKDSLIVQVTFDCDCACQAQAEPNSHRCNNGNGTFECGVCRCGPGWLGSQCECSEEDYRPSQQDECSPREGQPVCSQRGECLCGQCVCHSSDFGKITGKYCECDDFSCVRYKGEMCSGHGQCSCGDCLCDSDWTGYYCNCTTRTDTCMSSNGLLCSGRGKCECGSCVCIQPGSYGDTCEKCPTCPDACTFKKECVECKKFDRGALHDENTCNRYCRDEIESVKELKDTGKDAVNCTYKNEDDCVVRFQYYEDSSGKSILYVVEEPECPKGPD
# T6 sequence (chain, as listed by the source limits assumed, chain 1 of 2): as the sequence (P06756 31-992 limits assumed, chain 1 of 2) above
# T6 sequence (P05556 21-728 limits assumed, chain 2 of 2): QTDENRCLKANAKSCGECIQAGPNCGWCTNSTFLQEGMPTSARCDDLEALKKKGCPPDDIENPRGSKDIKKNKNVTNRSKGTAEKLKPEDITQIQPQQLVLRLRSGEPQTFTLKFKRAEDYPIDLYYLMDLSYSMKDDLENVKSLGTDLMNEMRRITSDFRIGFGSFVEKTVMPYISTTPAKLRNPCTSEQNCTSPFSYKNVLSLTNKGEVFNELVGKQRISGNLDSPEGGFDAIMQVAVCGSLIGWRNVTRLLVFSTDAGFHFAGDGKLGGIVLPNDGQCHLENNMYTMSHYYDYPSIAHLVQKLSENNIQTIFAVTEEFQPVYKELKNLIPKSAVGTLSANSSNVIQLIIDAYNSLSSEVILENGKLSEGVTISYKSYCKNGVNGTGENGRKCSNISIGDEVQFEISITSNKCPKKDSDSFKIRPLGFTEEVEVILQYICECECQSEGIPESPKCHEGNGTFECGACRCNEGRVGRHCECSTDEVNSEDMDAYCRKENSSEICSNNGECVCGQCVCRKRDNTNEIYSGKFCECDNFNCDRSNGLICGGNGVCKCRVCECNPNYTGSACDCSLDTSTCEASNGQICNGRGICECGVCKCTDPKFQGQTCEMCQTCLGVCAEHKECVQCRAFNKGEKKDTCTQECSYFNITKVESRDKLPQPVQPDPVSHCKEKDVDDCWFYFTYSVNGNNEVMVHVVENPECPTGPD
# T2 sequence (chain, as listed by the source limits assumed, chain 1 of 2): as the sequence (P06756 31-992 limits assumed, chain 1 of 2) above
# T2 sequence (P18564 22-707 limits assumed, chain 2 of 2): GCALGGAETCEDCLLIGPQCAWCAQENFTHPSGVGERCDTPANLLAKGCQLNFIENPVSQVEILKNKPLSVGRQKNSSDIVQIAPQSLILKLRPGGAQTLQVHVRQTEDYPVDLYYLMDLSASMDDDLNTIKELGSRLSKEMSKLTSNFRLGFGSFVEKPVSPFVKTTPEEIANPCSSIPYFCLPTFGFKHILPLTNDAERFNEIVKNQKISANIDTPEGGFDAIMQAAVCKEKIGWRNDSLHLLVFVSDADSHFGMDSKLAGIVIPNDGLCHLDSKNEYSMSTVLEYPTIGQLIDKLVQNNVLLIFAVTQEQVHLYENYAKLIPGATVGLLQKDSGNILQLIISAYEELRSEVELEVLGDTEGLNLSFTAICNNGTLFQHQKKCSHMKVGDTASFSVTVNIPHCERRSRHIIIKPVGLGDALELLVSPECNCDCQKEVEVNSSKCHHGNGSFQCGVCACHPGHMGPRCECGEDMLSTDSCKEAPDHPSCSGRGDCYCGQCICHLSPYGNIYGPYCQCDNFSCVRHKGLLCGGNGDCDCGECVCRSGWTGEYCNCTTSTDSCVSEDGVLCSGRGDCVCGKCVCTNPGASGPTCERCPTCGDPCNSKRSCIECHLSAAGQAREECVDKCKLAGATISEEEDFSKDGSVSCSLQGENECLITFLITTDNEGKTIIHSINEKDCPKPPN
# T7 sequence (P06756 31-992, chain 1 of 2): as the sequence (P06756 31-992 limits assumed, chain 1 of 2) above
# T7 sequence (P26012 43-684, chain 2 of 2, further chain): as the sequence (P26012 43-684 limits assumed, chain 2 of 2) above
binder,measurement,setting,value
B1,binding result,[1],binds
B2,Binding in Mg buffer relative to clone 68 (% compared with binding to anti-av clone 11D12V2),[2],120%
same,Binding in Mg buffer relative to clone 68 (% compared with binding to anti-av clone 11D12V2),[3],98%
same,EC50,[4],0.479 µg/mL
same,EC50,[5],1.19 µg/mL
same,EC50 of inhibition of TGF-β activation (TMLC luciferase reporter) of GARP/LTGFB1 Cho cells on immobilized αvβ8; unit from the axis,[6],0.854 µg/mL
same,binding result,[7],no binding (tested: supernatant at 1/10 dilution)
same,binding result,[8],no binding (tested: supernatant at 1/10 dilution)
same,binding result,[9],no binding (tested: supernatant at 1/10 dilution)
same,binding intensity score (0-4),[10],4 score 0-4
same,LogEC50,[11],3.78 Log10 (ng/ml)
same,EC50 of inhibition of TGF-β activation (TMLC luciferase reporter) of GARP/LTGFB1 Cho cells on immobilized αvβ6; unit from the axis,[12],0.412 µg/mL
B3,Binding in Mg buffer relative to clone 68 (% compared with binding to anti-av clone 11D12V2),[3],103%
same,binding result,[13],no binding (tested: 5 ug/ml (coated Mab))
same,EC50,[5],1.2 µg/mL
same,EC50 of inhibition of TGF-β activation (TMLC luciferase reporter) of GARP/LTGFB1 Cho cells on immobilized αvβ8; unit from the axis,[6],1.04 µg/mL
same,binding result,[7],no binding (tested: supernatant at 1/10 dilution)
same,binding result,[8],no binding (tested: supernatant at 1/10 dilution)
same,binding result,[9],no binding (tested: supernatant at 1/10 dilution)
same,binding intensity score (0-4),[10],4 score 0-4
same,Kd,[14],0.832 nM
same,IC50,[15],0.494 µg/mL
B4,binding result,[16],no binding
same,binding result,[17],no binding
same,binding result,[18],no binding
B5,binding result,[16],no binding
same,binding result,[17],no binding
same,binding result,[19],no binding
B6,binding result,[20],binds
B7,binding result,[21],binds
